Measurements taken from patent US12697402B2, “Detection of colonic neoplasia in vivo using near-infrared peptide targeted against overexpressed cMet” (THE REGENTS OF THE UNIVERSITY OF MICHIGAN, priority 2019, dated 2026).
Entries after “also recorded” stand apart in the source; their conditions may differ. Ends that are not written are not given here.

Columns and labels:
[1] = target: T1, cMet (HT29 cells) (Homo sapiens, UniProt P08581); assay: Competition for peptide binding with unlabeled peptides; set-up: endogenous in cells; host or cells: HT29 (cMet+), SW480 (cMet-), HT29 with siRNA knockdown; conditions: unlabeled peptide 0-400 μM, 5 μM QQT*-Cy5.5
T1 sequence (P08581 25-1390): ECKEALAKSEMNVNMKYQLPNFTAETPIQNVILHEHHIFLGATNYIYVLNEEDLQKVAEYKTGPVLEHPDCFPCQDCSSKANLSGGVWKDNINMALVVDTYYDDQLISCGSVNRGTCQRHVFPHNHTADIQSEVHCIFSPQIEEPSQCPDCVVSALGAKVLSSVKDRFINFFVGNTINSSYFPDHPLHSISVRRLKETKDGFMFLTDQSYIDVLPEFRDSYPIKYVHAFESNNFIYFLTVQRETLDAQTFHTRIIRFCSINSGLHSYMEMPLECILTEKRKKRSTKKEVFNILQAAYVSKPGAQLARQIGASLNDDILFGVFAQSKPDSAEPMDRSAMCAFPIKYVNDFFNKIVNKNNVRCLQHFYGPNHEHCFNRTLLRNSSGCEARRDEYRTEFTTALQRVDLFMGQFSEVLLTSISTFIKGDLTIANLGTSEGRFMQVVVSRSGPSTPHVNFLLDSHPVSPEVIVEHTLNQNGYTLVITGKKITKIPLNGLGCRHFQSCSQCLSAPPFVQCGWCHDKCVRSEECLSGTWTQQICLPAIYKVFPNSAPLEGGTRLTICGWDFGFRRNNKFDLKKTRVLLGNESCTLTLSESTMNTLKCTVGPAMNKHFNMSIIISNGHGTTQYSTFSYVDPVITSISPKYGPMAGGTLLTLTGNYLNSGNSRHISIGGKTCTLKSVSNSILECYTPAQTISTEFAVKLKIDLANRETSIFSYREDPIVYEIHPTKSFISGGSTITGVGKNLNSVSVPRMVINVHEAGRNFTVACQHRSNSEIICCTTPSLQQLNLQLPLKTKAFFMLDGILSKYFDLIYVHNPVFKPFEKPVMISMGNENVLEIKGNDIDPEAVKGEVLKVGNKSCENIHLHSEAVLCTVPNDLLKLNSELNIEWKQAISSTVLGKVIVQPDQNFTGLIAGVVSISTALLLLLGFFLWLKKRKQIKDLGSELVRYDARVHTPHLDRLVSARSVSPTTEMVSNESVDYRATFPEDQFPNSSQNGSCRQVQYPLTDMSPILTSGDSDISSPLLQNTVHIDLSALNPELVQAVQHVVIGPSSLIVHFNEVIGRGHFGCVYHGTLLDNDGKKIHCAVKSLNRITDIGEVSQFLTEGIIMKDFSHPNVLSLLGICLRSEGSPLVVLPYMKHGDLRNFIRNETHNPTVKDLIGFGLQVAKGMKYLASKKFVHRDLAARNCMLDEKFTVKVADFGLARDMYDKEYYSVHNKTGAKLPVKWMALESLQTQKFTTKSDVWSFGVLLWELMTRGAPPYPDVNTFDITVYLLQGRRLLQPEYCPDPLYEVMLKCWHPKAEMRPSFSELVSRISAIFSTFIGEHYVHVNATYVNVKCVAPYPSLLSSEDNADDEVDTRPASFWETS
Protocol: (§1) We used a competition assay between labeled QQT*-Cy5.5 and either unlabeled QQT* or recombinant human hepatocyte growth factor (HGF, […], R&D) to validate the specific binding of QQT**-Cy5.5 to HT29 cells. Approximately 10^3 HT29 cells were grown to about 70% confluence on coverslips in triplicate. Unlabeled QQT* and either TLQ* peptide at 0, 25, 50, 100, 200 and 400 μM, or HGF at 0, 5, 10, 25, 50 or 100 ng/mL, were first added and incubated with the cells for 30 min (i.e., minutes) at 4° C. The cells were washed with 1×PBS three times and then incubated with 5 μM QQT*-Cy5.5 for another 30 min at 4° C. The cells were washed three times with 1×PBS and then fixed with 4% PFA for 10 min. The cells were washed with 1×PBS and mounted with ProLong Gold reagent containing DAPI (Invitrogen). Confocal fluorescence images were collected at each concentration using a 63× objective (Leica SP5 Inverted 2-Photon FLIM Confocal), and intensities from five cells in three independent images were quantified using custom Matlab (Mathworks, Natick, MA) software.

[2] = target: T2, cMet (Homo sapiens, UniProt P08581); assay: siRNA knockdown of cMet in HT29 cells, binding by confocal microscopy; type: cell-based
T2 sequence (P08581 25-1390): as above
Protocol: (§2) HT29, SW480, S114 and NIH3T3 cells were inoculated in 12-well cell culture plates with circle glass coverslips to about 80% confluence. The cells were blocked with 1×PBS plus 2% BSA for 1 hour at 4° C., then were incubated with 5 μM peptides for 10 min at RT in the dark, washed thrice, and fixed with 4% PFA for 5 min, washed with 1×PBS, then mounted on glass slides with ProLong Gold reagent containing DAPI (Invitrogen, Waltham, MA). As positive control, after blocking with 2% BSA for 1 hour at 4° C., A 1:3000 dilution of primary monoclonal rabbit anti-cMet antibody (Cell Signaling Technology, #8198) was incubated with cells overnight at 4° C. Afterward, the cells were washed thrice with 1×PBS and further incubated with a 1:500 dilution of AF488-labeled secondary goat ant-rabbit immunoglobulin G antibody (Life Technologies, #A-11029) for 1 hour at RT, washed thrice, and then mounted on glass slides with ProLong Gold reagent containing DAPI. Confocal fluorescence images were collected using a 63× oil-immersion objective (Leica SP5 Inverted 2-Photon FLIM Confocal). Fluorescence intensities from five cells in two independent images were quantified using custom Matlab (Mathworks) software.
We knocked down cMet protein levels with siRNAs and then evaluated the binding of QQT*-Cy5.5 and TLQ*-Cy5.5 to the surface of si-cMet-transfected HT29 cells to validate specific peptide binding. We used siRNA1 (SASI_Hs01_00133002, Sigma) for HT29, siRNA2 (SASI_WI_00000001, Sigma) for S114, and MISSION® siRNA #1 Universal Negative Control (SIC001, Sigma) for a negative control. We transfected cells with Lipofectamine 2000 (11668027, Invitrogen) per manufacturer instructions. Knockdown of cMet was confirmed by Western blot (FIG. 18). The cells were incubated with 5 μM peptide for 5 min at RT (i.e., room temperature), and then fixed and mounted on glass slides with ProLong Gold reagent containing DAPI, as previous described. […] Confocal fluorescence images were collected using a 63× oil-immersion objective (Leica SP5 Inverted 2-Photon FLIM Confocal).

[3] = target: T2, cMet; assay: Confocal microscopy of binding to HT29 (cMet+) versus SW480 (cMet−) cells; type: cell-based
Protocol: as §2

[4] = test system: flat and polyploid colonic adenomas; assay: In vivo endoscopic imaging in CPC;Apc mice; conditions: CPC;Apc mouse; topical / intra-rectal, 100 μM, 5 min incubation
Protocol: A CPC;Apc mouse model that can develop spontaneous adenomas in distal colon epithelium^44 was also used. Under the control of the Cdx2 promoter (CDX2P-9.5NLS-Cre), Cre recombinase can sporadically delete the adenomatous polyposis coli (APC) allele, resulting in polyploid colonic adenomas or flat lesions. We collected images from mice (n=8) that ranged in age from 7 to 10 months.
In vivo imaging was performed with approval of the University of Michigan Committee on the Use and Care of Animals. CPC;Apc mice were used for in vivo imaging. […]
(§3) A rigid small animal endoscope (Karl Sorz Veterinary Endoscopy) was inserted into the rectum (Liu et al., Gut 62:395-403 (2013)) and used to image the distal colon^45. […] The distance between the endoscope tip and the anus, and the clockwise location of polyps, were recorded. […] A ratio of the fluorescence and reflectance images was determined to correct for differences in distance and geometry over the image field-of-view (FOV) (Joshi et al., Endoscopy 48:A1-A13 (2016)). […]
The mean fluorescence intensity was used to calculate the target-to-background (T/B) ratios. Images were processed and analyzed using custom software in Matlab (Mathworks) (Joshi et al., Gastroenterology 152:1002-1013 e1009 (2017)). Matlab software was used to quantify the fluorescence intensity. […]

[5] = test system: human colon organoids (adenoma, SSA, normal); assay: In vivo endoscopic imaging of patient-derived colon organoids implanted in NOD/SCID mice; conditions: NOD/SCID mouse; topical administration
Protocol: Acute colitis was induced in 8-week-old NOD.Cg-Prkdcscid Il2rgtm1Wjl/SzJ mice (005557, The Jackson Laboratory)^40,41 by feeding them with 3.0% DSS (molecular weight 40,000; Cat #AAJ6360622; Alfa Aesar) dissolved in drinking water for 5 days (d). At 6 d, the donor organoids were released from the type I collagen gel, dissociated by EDTA, and washed with BSA-containing PBS as with the passage procedure. Approximately 2.5-5E5 cell aggregates in 200 μL were transplanted per mouse as previously described^42,43. Organoids were instilled into colonic lumen as a suspension by using a syringe and a thin flexible catheter 4 cm in length and 2 mm in diameter. The anal verge was glued for 6 hours after infusion to prevent luminal contents from being excreted immediately, then glue were removed by Ethanol. Mice were maintained as usual after the transplantation. The mice were housed in pathogen-free conditions and supplied water ad libitum under controlled conditions of humidity (50±10%), light (12/12 hour light/dark cycle) and temperature (25° C.). […]
as §3
The mean fluorescence intensity was used to calculate the target-to-background (T/B) ratios. Images were processed and analyzed using custom software in Matlab (Mathworks) (Joshi et al., Gastroenterology 152:1002-1013 e1009 (2017)). Matlab software was used to quantify the fluorescence intensity. The fluorescence intensity of regions of interest (ROI) was corrected by taking the ratio of fluorescence to reflectance, the fluorescence of interested region was taken as target (T), and adjacent mouse normal colon region with equal area was picked for use as background (B)^46. […]

[6] = target: T2, cMet; assay: Confocal microscopy of binding to S114 (cMet+) versus NIH3T3 (cMet−) cells; type: cell-based, mouse; set-up: expressed in transfected cells; host or cells: S114 (NIH 3T3 mouse fibroblasts transformed with human HGF/SF and Met); NIH3T3 as cMet- control; conditions: 5 μM peptide
Source text: Human CRC cell lines HT29, SW480, CCD841 and mouse embryonic fibroblast cell line NIH 3T3 were obtained from the American Type Culture Collection (ATCC, Manassas, VA). The S114 cell line comprised NIH 3T3 cells transformed with human HGF/SF and Met and expressed cMet. We used McCoy's 5A Medium (Gibco) for culturing HT29 cells and Dulbecco's Modified Eagle Medium (Gibco) was used to culture SW480, NIH3T3 and S114 cells. Eagle's Minimum Essential Medium (Lonza) was used for CCD841 cells. All cells were cultured at 37° C. in 5% CO2, and supplemented with 10% fetal bovine serum (FBS). The cells were passaged using 0.25% trypsin containing EDTA (Mediatech, Manassas, VA). Cell numbers were quantitated on a hemocytometer. Peptide synthesis reagents were obtained from Anaspec (Anaspec, Fremont, CA) or AAPPTEC (AAPPTEC, Louisville, KY), were of the highest grade available (>99% purity), and were used without further purification. […]
HT29, SW480, S114 and NIH3T3 cells were inoculated in 12-well cell culture plates with circle glass coverslips to about 80% confluence. […] Confocal fluorescence images were collected using a 63× oil-immersion objective (Leica SP5 Inverted 2-Photon FLIM Confocal). Fluorescence intensities from five cells in two independent images were quantified using custom Matlab (Mathworks) software.

[7] = target: T3, mouse cMet-ECD (Mus musculus, UniProt P16056); assay: Pull-down assay; type: binding; conditions: peptide immobilized on EHS beads
T3 construct: incubated with purified mouse cMet-ECD protein (50622-M08H, Sino Biological); purchased Sino Biological 50622-M08H
T3 sequence (P16056 25-931 limits assumed): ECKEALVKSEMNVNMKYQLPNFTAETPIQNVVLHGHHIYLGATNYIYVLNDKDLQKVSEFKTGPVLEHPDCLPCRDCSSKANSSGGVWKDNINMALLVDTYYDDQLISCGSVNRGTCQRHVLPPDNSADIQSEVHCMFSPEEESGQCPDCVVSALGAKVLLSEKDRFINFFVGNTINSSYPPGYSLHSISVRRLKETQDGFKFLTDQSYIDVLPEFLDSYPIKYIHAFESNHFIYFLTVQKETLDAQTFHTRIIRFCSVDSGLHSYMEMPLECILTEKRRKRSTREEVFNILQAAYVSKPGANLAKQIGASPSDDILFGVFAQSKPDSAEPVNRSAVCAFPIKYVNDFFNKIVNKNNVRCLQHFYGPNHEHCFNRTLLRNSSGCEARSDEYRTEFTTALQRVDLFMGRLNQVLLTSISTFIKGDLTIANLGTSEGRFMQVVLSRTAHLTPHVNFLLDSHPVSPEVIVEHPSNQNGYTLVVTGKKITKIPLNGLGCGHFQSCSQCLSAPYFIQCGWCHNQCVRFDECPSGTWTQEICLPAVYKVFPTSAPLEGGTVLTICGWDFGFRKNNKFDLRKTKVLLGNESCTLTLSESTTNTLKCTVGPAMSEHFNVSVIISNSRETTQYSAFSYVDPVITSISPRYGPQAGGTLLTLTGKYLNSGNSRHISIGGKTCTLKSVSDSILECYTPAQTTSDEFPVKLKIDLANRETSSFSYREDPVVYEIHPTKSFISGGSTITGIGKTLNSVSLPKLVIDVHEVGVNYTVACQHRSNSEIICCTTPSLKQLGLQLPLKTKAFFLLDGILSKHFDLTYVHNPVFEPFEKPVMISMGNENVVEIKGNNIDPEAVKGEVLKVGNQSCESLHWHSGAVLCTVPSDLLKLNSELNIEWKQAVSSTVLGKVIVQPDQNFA
Protocol: Interactions between peptide and mouse cMet were evaluated using a pull-down assay (Paul et al., Methods 54:387-395 (2011)). Peptides were immobilized on EHS active beads (17-0906-01, GE), and incubated with purified mouse cMet-ECD protein (50622-M08H, Sino Biological). After washing, bound proteins were detected by Western blot (FIG. 18).

[8] = test system: phosphorylation of cMet, AKT and ERK1/2; assay: Effect of peptide on cell signaling (Western blot); type: cell-based, human; conditions: HT29 cells; 10, 30, 120 min; HGF 25 ng/mL; peptide 5 or 100 μM
Protocol: HT29 cells were treated with serum-free medium overnight for starvation before incubation with hHGF (hHGF, 294-HG-005, R&D) or peptides. Recombinant Human HGF Protein was added to HT29 cells at concentrations of 25 ng/ml for 10, 30, or 120 min in separate wells. QQT*-Cy5.5 and TLQ*-Cy5.5 were added at concentrations of 5 or 100 μM for 10, 30, and 120 min. Peptides were added at concentrations of 5 and 100 μM for 10, 30, or 120 min. Cells were then washed with 1×PBS and lysed with Pierce RIPA buffer containing Halt Phosphatase Inhibitor Cocktail (Thermo Fisher) and Halt Protease Inhibitor Cocktail (Thermo Fisher). Protein contents were quantified by Bicinchoninic Acid Assay (BCA). Anti-cMet antibody (Cell Signaling, #8198), phospho-cMet (Tyr1234/1235) antibody (Cell Signaling, #3077), anti-AKT antibody (Cell Signaling, #4691), anti-phospho-AKT antibody (Cell Signaling, #9271), anti-ERK1/2 antibody (Abcam, #ab17942), anti-phospho-ERK1/2 antibody (Abcam, #ab50011), and anti-tubulin antibody (Invitrogen, #32-2600) were used per manufacturer's instructions.

[9] = target: T1, cMet (HT29 cells); assay: Competition for peptide binding with HGF; set-up: endogenous in cells; host or cells: HT29 (cMet+), SW480 (cMet-), HT29 with siRNA knockdown; conditions: HGF 0 to 100 ng/mL; confocal microscopy
Protocol: as §1

[10] = confocal microscopy, 5 μM peptide

intensity reduction with knockdown of cMet ([2]; HT29 siCL versus sicMet) | binding to surface of control HT29 cells ([2]; HT29 transfected with siCL non-targeting siRNA, confocal microscopy, 5 μM peptide) | mean intensity HT29 versus SW480 cells [3] | binding to surface of HT29 cells (cMet+) [3, 10] | signal / binding to SW480 cells (cMet−) [3, 10] | binding to surface of S114 cells (cMet+) [6] | signal / binding to NIH3T3 cells (cMet−) [6] | binding to mouse cMet-ECD, Western blot band [7] | change of binding to HT29 cells with addition of HGF [9] | Substance | change of QQT*-Cy5.5 fluorescence intensity on addition of unlabeled peptide [1] | fluorescence intensity / binding with HT29 knockdown cells ([2]; HT29 transfected with sicMet-targeting siRNA, confocal microscopy) | NIR fluorescence image of flat lesion [4] | NIR fluorescence image of polyp [4] | fluorescence signal from human SSA organoid in vivo [5] | fluorescence signal from human adenoma organoid in vivo [5] | fluorescence signal from human normal organoid in vivo [5] | phosphorylation of cMet and downstream AKT and ERK1/2 [8]
– | – | – | – | – | – | – | – | – | TLQWNQS (Artificial Seuqence) [TLQ*] | no significant change | – | – | – | – | – | – | –
0.96 fold | minimal binding | 0.85 fold change | minimal binding | little binding | minimal binding | little binding | – | – | TLQ*-Cy5.5: scrambled control sequence TLQWNQS (SEQ ID NO:3) labeled with Cy5.5 via GGGSK linker (TLQWNQSGGGS-{K(Cy5.5)-NH2}) | – | little signal; also recorded: little binding | little signal; also recorded: minimal signal | minimal signal | minimal signal; also recorded: little signal | little signal; also recorded: minimal signal | little signal; also recorded: minimal signal | –
– | – | – | – | – | – | – | strong band | no competition | QQTNWSL [QQT*] | decrease significantly; also recorded: significant decrease | – | – | – | – | – | – | no change in phosphorylation
